For data set [1], the target named is T1, SHEL (synthetic human elastin; recombinant human tropoelastin splice form).
T1 chain: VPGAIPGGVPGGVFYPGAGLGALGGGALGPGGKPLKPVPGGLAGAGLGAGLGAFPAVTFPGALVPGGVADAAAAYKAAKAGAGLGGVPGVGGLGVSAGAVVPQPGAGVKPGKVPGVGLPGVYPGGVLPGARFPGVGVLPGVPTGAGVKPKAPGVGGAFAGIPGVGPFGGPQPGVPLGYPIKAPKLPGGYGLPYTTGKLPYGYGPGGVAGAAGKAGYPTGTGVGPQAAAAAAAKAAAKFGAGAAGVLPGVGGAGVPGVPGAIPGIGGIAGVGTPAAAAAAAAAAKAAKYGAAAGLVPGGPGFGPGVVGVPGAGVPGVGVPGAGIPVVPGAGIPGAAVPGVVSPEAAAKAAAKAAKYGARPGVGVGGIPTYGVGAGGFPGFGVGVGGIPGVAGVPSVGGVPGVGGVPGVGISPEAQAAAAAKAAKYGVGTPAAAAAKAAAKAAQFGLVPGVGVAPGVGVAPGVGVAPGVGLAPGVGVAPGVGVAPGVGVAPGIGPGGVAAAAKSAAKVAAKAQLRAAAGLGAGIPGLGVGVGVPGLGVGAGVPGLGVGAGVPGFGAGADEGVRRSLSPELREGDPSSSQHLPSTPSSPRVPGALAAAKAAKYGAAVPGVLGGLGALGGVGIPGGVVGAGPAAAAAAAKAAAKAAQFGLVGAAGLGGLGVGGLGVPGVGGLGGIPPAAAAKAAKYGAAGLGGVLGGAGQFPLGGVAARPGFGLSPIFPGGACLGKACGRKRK

Data set [2] has as its target T2, serine protease site peptide (SPS-peptide), N-…-C.
T2 chain: KAQLRAAAGLGAGI

Data set [3] has as its target T3, SHELδ26A (SHEL lacking the sequence of exon 26A).
T3 chain: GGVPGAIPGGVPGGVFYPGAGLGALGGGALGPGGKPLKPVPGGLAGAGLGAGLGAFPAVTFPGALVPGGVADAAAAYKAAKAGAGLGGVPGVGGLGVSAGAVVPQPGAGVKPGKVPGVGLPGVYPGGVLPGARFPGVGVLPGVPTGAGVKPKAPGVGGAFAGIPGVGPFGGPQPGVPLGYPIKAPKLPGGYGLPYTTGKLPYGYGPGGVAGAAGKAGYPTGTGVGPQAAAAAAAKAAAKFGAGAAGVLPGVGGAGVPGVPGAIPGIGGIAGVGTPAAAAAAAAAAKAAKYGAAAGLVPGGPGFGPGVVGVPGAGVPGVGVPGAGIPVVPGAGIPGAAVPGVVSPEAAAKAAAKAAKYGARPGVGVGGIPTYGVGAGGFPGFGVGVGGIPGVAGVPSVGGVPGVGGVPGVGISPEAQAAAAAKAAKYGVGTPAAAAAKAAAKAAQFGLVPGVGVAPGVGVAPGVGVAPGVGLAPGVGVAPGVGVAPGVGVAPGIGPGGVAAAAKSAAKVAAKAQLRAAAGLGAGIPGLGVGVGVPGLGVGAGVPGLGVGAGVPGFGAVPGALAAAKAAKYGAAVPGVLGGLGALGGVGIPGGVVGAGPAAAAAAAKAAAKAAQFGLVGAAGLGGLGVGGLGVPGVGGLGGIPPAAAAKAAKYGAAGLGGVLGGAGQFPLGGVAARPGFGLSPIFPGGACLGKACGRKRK

B1: Gelatinase B (92 kDa gelatinase) (protein)
chain: MRTPRCGVPDLGRFQTFEGDLKWHHHNITYWIQNYSEDLPRAVIDDAFARAFALWSAVTPLTFTRVYSRDADIVIQFGVAEHGDGYPFDGKDGLLAHAFPPGPGIQGDAHFDDDELWSLGKGVVVPTRFGNADGAACHFPFIFEGRSYSACTTDGRSDGLPWCSTTANYDTDDRFGFCPSERLYTQDGNADGKPCQFPFIFQGQSYSACTTDGRSDGYRWCATTANYDRDKLFGFCPTRADSTVMGGNSAGELCVFPFTFLGKEYSTCTSEGRGDGRLWCATTSNFDSDKKWGFCPDQGYSLFLVAAHEFGHALGLDHSSVPEALMYPMYRFTEGPPLHKDDVNGIRHLYGPRPEPEPRPPTTTTPQPTAPPTVCPTGPPTVHPSERPTAGPTGPPSAGPTGPPTAGPSTATTVPLSPVDDACNVNIFDAIAEIGNQLYLFKDGKYWRFSEGRGSRPQGPFLIADKWPALPRKLDSVFEERLSKKLFFFSGRQVWVYTGASVLGPRRLDKLGLGADVAQVTGALRSGRGKMLLFSGRRLWRFDVKAQMVDPRSASEVDRMFPGVPLDTHDVFQYREKAYFCQDRFYWRVSSRSELNQVDQVGYVTYDILQCPED
Regarding B1, the “digestion of SHEL by APMA-treated gelatinase B, SDS-PAGE” value in data set [1] was “Digestion with gelatinase A and gelatinase B (each previously treated with APMA) of SHEL revealed SDS-PAGE patterns of preferentially digested fragments”.

B2: human plasmin (Sigma) (protein)
chain: KVYLSECKTGNGKNYRGTMSKTKNGITCQKWSSTSPHRPRFSPATHPSEGLEENYCRNPDNDPQGPWCYTTDPEKRYDYCDILECEEECMHCSGENYDGKISKTMSGLECQAWDSQSPHAHGYIPSKFPNKNLKKNYCRNPDRELRPWCFTTDPNKRWELCDIPRCTTPPPSSGPTYQCLKGTGENYRGNVAVTVSGHTCQHWSAQTPHTHNRTPENFPCKNLDENYCRNPDGKRAPWCHTTNSQVRWEYCKIPSCDSSPVSTEQLAPTAPPELTPVVQDCYHGDGQSYRGTSSTTTTGKKCQSWSSMTPHRHQKTPENYPNAGLTMNYCRNPDADKGPWCFTTDPSVRWEYCNLKKCSGTEASVVAPPPVVLLPDVETPSEEDCMFGNGKGYRGKRATTVTGTPCQDWAAQEPHRHSIFTPETNPRAGLEKNYCRNPDGDVGGPWCYTTNPRKLYDYCDVPQCAAPSFDCGKPQVEPKKCPGRVVGGCVAHPHSWPWQVSLRTRFGMHFCGGTLISPEWVLTAAHCLEKSPRPSSYKVILGAHQEVNLEPHVQEIEVSRLFLEPTRKDIALLKLSSPAVITDKVIPACLPSPNYVVADRTECFITGWGETQGTFGAGLLKEAQLPVIENKVCNRYEFLNGRVQSTELCAGHLAGGTDSCQGDSGGPLVCFEKDKYILQGVTSWGLGCARPNKPGVYVRVSRFVTWIEGVMRNN
Regarding B2, the “degradation of SHEL by human plasmin, SDS-PAGE” value in data set [1] is “Major bands could be isolated using low concentration plasmin at 55, 45, 40, 34, 28, 22 and 18 kDa”. For the same protein, the “amount of full-length SHEL after plasmin digestion with a 100:1 molar excess of SPS-peptide, SDS-PAGE and densitometry (also seen with SHELδ26A, not shown)” value in data set [2] was “more full-length SHEL was evident compared with controls using trypsin, plasmin, kallikrein and serum”.

B3: Gelatinase A (72 kDa gelatinase) (protein)
chain: YNFFPRKPKWDKNQITYRIIGYTPDLDPETVDDAFARAFQVWSDVTPLRFSRIHDGEADIMINFGRWEHGDGYPFDGKDGLLAHAFAPGTGVGGDSHFDDDELWTLGEGQVVRVKYGNADGEYCKFPFLFNGKEYNSCTDTGRSDGFLWCSTTYNFEKDGKYGFCPHEALFTMGGNAEGQPCKFPFRFQGTSYDSCTTEGRTDGYRWCGTTEDYDRDKKYGFCPETAMSTVGGNSEGAPCVFPFTFLGNKYESCTSAGRSDGKMWCATTANYDDDRKWGFCPDQGYSLFLVAAHEFGHAMGLEHSQDPGALMAPIYTYTKNFRLSQDDIKGIQELYGASPDIDLGTGPTPTLGPVTPEICKQDIVFDGIAQIRGEIFFFKDRFIWRTVTPRDKPMGPLLVATFWPELPEKIDAVYEAPQEEKAVFFAGNEYWIYSASTLERGYPKPLTSLGLPPDVQRVDAAFNWSKNKKTYIFAGDKFWRYNEVKKKMDPGFPKLIADAWNAIPDNLDAVVDLQGGGHSYFFKGAYYLKLENQSLKSVKFGSIKSDWLGC
As to B3, in data set [1], the “digestion of SHEL by APMA-treated gelatinase A, SDS-PAGE” value was “Digestion with gelatinase A and gelatinase B (each previously treated with APMA) of SHEL revealed SDS-PAGE patterns of preferentially digested fragments”.

B4: human leukocyte elastase (HLE) (Sigma) (protein)
chain: IVGGRRARPHAWPFMVSLQLRGGHFCGATLIAPNFVMSAAHCVANVNVRAVRVVLGAHNLSRREPTRQVFAVQRIFENGYDPVNLLNDIVILQLNGSATINANVQVAQLPAQGRRLGNGVQCLAMGWGLLGRNRGIASVLQELNVTVVTSLCRRSNVCTLVRGRQAGVCFGDSGSPLVCNGLIHGIASFVRGGCASGLYPDAFAPVAQFVNWIDSIIQ
On to B4, for which the “degradation of SHEL by human leukocyte elastase, SDS-PAGE” value in data set [1] was “numerous fragments were seen with two prominent fragments at 32 and 18 kDa”. In data set [3], the “degradation of SHELδ26A by human leukocyte elastase, SDS-PAGE” value was “SHELδ26A produced a similar profile but with a series of fragments appearing 4 kDa smaller”. For the same protein, the “amount of full-length SHEL after HLE digestion with SPS-peptide, SDS-PAGE and densitometry” value in data set [2] was “SPS-peptide also resulted in more full-length SHEL using thrombin and HLE but to a lesser extent”.

For the origin of these results see patent publication US7229788.
